Measurements taken from patent US20140087995A1 (published 2014).
Numbered stars: 1 amine (or outer) side, 2 acyl side, 3 side chain; on linkers, the order of the positions; unused ones are H or OH. Bridge positions count the residues as written; N and C are the ends. Side chains are listed from the residue outwards. Ends that are not written are not given here. * marks the point of attachment. C20 diacid = O=C(O)CCCCCCCCCCCCCCCCCCC(=O)*; γGlu = O=C(O)[C@H](CCC(=O)[*:2])N[*:1]; AEEA = NCCOCCOCC(=O)O

T1: rat calcitonin receptor (rat, UniProt P32214 25-516)
T1 construct: whole, on cells; Cell membranes of transiently transfected BHK tk'ts 13 cells (Assay VIII); also called rCTR; rCT
T1 sequence (looked up): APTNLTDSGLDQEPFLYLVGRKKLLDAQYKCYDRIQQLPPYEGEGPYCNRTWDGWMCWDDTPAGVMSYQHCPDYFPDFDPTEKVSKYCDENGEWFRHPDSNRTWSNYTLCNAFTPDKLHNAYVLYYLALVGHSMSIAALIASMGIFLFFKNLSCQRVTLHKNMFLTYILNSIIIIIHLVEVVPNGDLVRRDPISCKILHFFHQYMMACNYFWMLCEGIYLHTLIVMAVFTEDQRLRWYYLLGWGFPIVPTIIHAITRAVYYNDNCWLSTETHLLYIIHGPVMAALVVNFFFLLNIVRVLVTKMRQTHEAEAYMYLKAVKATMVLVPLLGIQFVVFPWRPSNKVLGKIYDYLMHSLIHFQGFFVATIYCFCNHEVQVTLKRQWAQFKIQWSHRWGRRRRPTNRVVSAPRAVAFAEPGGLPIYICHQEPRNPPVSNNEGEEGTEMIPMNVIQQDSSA

T2: rat amylin receptor (rat calcitonin receptor + rat RAMP 3) (rat, UniProt P32214 25-516; Q9JJ73 23-147)
T2 construct: whole, on cells; Cell membranes of transiently transfected BHK tk'ts 13 cells (Assay VI); also called rAmylin-R; rat amylin 3(a) receptor
T2 sequence (looked up) 1: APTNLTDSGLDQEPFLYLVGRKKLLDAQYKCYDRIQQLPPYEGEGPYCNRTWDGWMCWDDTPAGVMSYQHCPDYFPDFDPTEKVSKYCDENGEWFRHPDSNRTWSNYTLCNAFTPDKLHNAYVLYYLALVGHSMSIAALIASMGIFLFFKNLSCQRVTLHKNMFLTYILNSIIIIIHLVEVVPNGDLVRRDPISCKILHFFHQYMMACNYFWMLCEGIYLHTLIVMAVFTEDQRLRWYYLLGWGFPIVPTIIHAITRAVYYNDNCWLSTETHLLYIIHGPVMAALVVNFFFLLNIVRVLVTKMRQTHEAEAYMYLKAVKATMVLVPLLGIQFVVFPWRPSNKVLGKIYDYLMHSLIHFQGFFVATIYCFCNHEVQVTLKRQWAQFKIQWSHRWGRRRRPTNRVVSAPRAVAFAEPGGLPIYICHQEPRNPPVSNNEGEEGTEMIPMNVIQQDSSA
T2 sequence (looked up) 2: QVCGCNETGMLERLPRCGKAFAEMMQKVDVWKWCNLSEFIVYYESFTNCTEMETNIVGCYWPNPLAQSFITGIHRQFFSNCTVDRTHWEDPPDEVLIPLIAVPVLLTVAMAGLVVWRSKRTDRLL


Key:
[1] = biological target: T1, rat calcitonin receptor; experiment: ratio IC50 rat calcitonin receptor / IC50 rat amylin receptor
[2] = biological target: T1, rat calcitonin receptor; experiment: SPA competition vs 125I-calcitonin, membranes with rat CTR (Assay VIII)
[3] = biological target: T2, rat amylin receptor (rat calcitonin …); experiment: SPA competition vs 125I-rat amylin, membranes with rat CTR + rat RAMP3 (Assay VI)

Row | Binder | Ratio rCT/rAmylin binding [1] | IC50 [2] | IC50 [3]
1 | K([AEEA-γGlu-C20 diacid])CNTATCATQRLANFLRHSSPNFGAIPSPTPVGSNTY-NH2 (disulfide 2-7; N-terminus assumed; SMILES CC[C@H](C)[C@H](NC(=O)[C@H](C)NC(=O)CNC(=O)[C@H](Cc1ccccc1)NC(=O)[C@H](CC(N)=O)NC(=O)[C@@H]1CCCN1C(=O)[C@H](CO)NC(=O)[C@H](CO)NC(=O)[C@H](Cc1c[nH]cn1)NC(=O)[C@H](CCCNC(=N)N)NC(=O)[C@H](CC(C)C)NC(=O)[C@H](Cc1ccccc1)NC(=O)[C@H](CC(N)=O)NC(=O)[C@H](C)NC(=O)[C@H](CC(C)C)NC(=O)[C@H](CCCNC(=N)N)NC(=O)[C@H](CCC(N)=O)NC(=O)[C@@H](NC(=O)[C@H](C)NC(=O)[C@@H]1CSSC[C@H](NC(=O)[C@@H](N)CCCCNC(=O)COCCOCCNC(=O)CC[C@H](NC(=O)CCCCCCCCCCCCCCCCCCC(=O)O)C(=O)O)C(=O)N[C@@H](CC(N)=O)C(=O)N[C@@H]([C@@H](C)O)C(=O)N[C@@H](C)C(=O)N[C@@H]([C@@H](C)O)C(=O)N1)[C@@H](C)O)C(=O)N1CCC[C@H]1C(=O)N[C@@H](CO)C(=O)N1CCC[C@H]1C(=O)N[C@H](C(=O)N1CCC[C@H]1C(=O)N[C@H](C(=O)NCC(=O)N[C@@H](CO)C(=O)N[C@@H](CC(N)=O)C(=O)N[C@H](C(=O)N[C@@H](Cc1ccc(O)cc1)C(N)=O)[C@@H](C)O)C(C)C)[C@@H](C)O, Acylated analogue of human amylin; also called compound 54) | 179 | 8.79 nM | 0.049 nM
2 | K([AEEA-γGlu-C20 diacid])CNTATCATQRLANFLRHSSPNFGAIPSSTPVGSHTY-NH2 (disulfide 2-7; N-terminus assumed; SMILES CC[C@H](C)[C@H](NC(=O)[C@H](C)NC(=O)CNC(=O)[C@H](Cc1ccccc1)NC(=O)[C@H](CC(N)=O)NC(=O)[C@@H]1CCCN1C(=O)[C@H](CO)NC(=O)[C@H](CO)NC(=O)[C@H](Cc1c[nH]cn1)NC(=O)[C@H](CCCNC(=N)N)NC(=O)[C@H](CC(C)C)NC(=O)[C@H](Cc1ccccc1)NC(=O)[C@H](CC(N)=O)NC(=O)[C@H](C)NC(=O)[C@H](CC(C)C)NC(=O)[C@H](CCCNC(=N)N)NC(=O)[C@H](CCC(N)=O)NC(=O)[C@@H](NC(=O)[C@H](C)NC(=O)[C@@H]1CSSC[C@H](NC(=O)[C@@H](N)CCCCNC(=O)COCCOCCNC(=O)CC[C@H](NC(=O)CCCCCCCCCCCCCCCCCCC(=O)O)C(=O)O)C(=O)N[C@@H](CC(N)=O)C(=O)N[C@@H]([C@@H](C)O)C(=O)N[C@@H](C)C(=O)N[C@@H]([C@@H](C)O)C(=O)N1)[C@@H](C)O)C(=O)N1CCC[C@H]1C(=O)N[C@@H](CO)C(=O)N[C@@H](CO)C(=O)N[C@H](C(=O)N1CCC[C@H]1C(=O)N[C@H](C(=O)NCC(=O)N[C@@H](CO)C(=O)N[C@@H](Cc1c[nH]cn1)C(=O)N[C@H](C(=O)N[C@@H](Cc1ccc(O)cc1)C(N)=O)[C@@H](C)O)C(C)C)[C@@H](C)O, Acylated analogue of human amylin; also called compound 57) | 135 | 24.4 nM | 0.181 nM
3 | K([AEEA-γGlu-C20 diacid])CNTATCATQRLANFLRHSSPNFGAIPSPTNVGPNTY-NH2 (disulfide 2-7; N-terminus assumed; SMILES CC[C@H](C)[C@H](NC(=O)[C@H](C)NC(=O)CNC(=O)[C@H](Cc1ccccc1)NC(=O)[C@H](CC(N)=O)NC(=O)[C@@H]1CCCN1C(=O)[C@H](CO)NC(=O)[C@H](CO)NC(=O)[C@H](Cc1c[nH]cn1)NC(=O)[C@H](CCCNC(=N)N)NC(=O)[C@H](CC(C)C)NC(=O)[C@H](Cc1ccccc1)NC(=O)[C@H](CC(N)=O)NC(=O)[C@H](C)NC(=O)[C@H](CC(C)C)NC(=O)[C@H](CCCNC(=N)N)NC(=O)[C@H](CCC(N)=O)NC(=O)[C@@H](NC(=O)[C@H](C)NC(=O)[C@@H]1CSSC[C@H](NC(=O)[C@@H](N)CCCCNC(=O)COCCOCCNC(=O)CC[C@H](NC(=O)CCCCCCCCCCCCCCCCCCC(=O)O)C(=O)O)C(=O)N[C@@H](CC(N)=O)C(=O)N[C@@H]([C@@H](C)O)C(=O)N[C@@H](C)C(=O)N[C@@H]([C@@H](C)O)C(=O)N1)[C@@H](C)O)C(=O)N1CCC[C@H]1C(=O)N[C@@H](CO)C(=O)N1CCC[C@H]1C(=O)N[C@H](C(=O)N[C@@H](CC(N)=O)C(=O)N[C@H](C(=O)NCC(=O)N1CCC[C@H]1C(=O)N[C@@H](CC(N)=O)C(=O)N[C@H](C(=O)N[C@@H](Cc1ccc(O)cc1)C(N)=O)[C@@H](C)O)C(C)C)[C@@H](C)O, Acylated analogue of human amylin; also called compound 56) | 131 | 5.26 nM | 0.04 nM
4 | K([AEEA-γGlu-C20 diacid])CNTATCATQRLANFLRHSSPNFGAIPSSTNVGPNTY-NH2 (disulfide 2-7; N-terminus assumed; SMILES CC[C@H](C)[C@H](NC(=O)[C@H](C)NC(=O)CNC(=O)[C@H](Cc1ccccc1)NC(=O)[C@H](CC(N)=O)NC(=O)[C@@H]1CCCN1C(=O)[C@H](CO)NC(=O)[C@H](CO)NC(=O)[C@H](Cc1c[nH]cn1)NC(=O)[C@H](CCCNC(=N)N)NC(=O)[C@H](CC(C)C)NC(=O)[C@H](Cc1ccccc1)NC(=O)[C@H](CC(N)=O)NC(=O)[C@H](C)NC(=O)[C@H](CC(C)C)NC(=O)[C@H](CCCNC(=N)N)NC(=O)[C@H](CCC(N)=O)NC(=O)[C@@H](NC(=O)[C@H](C)NC(=O)[C@@H]1CSSC[C@H](NC(=O)[C@@H](N)CCCCNC(=O)COCCOCCNC(=O)CC[C@H](NC(=O)CCCCCCCCCCCCCCCCCCC(=O)O)C(=O)O)C(=O)N[C@@H](CC(N)=O)C(=O)N[C@@H]([C@@H](C)O)C(=O)N[C@@H](C)C(=O)N[C@@H]([C@@H](C)O)C(=O)N1)[C@@H](C)O)C(=O)N1CCC[C@H]1C(=O)N[C@@H](CO)C(=O)N[C@@H](CO)C(=O)N[C@H](C(=O)N[C@@H](CC(N)=O)C(=O)N[C@H](C(=O)NCC(=O)N1CCC[C@H]1C(=O)N[C@@H](CC(N)=O)C(=O)N[C@H](C(=O)N[C@@H](Cc1ccc(O)cc1)C(N)=O)[C@@H](C)O)C(C)C)[C@@H](C)O, Acylated analogue of human amylin; also called compound 50) | 81.7 | 5.63 nM | 0.069 nM
5 | K([AEEA-γGlu-C20 diacid])CNTATCATQRLANFLRHSSPNFGAIPSSTNVGPHTY-NH2 (disulfide 2-7; N-terminus assumed; SMILES CC[C@H](C)[C@H](NC(=O)[C@H](C)NC(=O)CNC(=O)[C@H](Cc1ccccc1)NC(=O)[C@H](CC(N)=O)NC(=O)[C@@H]1CCCN1C(=O)[C@H](CO)NC(=O)[C@H](CO)NC(=O)[C@H](Cc1c[nH]cn1)NC(=O)[C@H](CCCNC(=N)N)NC(=O)[C@H](CC(C)C)NC(=O)[C@H](Cc1ccccc1)NC(=O)[C@H](CC(N)=O)NC(=O)[C@H](C)NC(=O)[C@H](CC(C)C)NC(=O)[C@H](CCCNC(=N)N)NC(=O)[C@H](CCC(N)=O)NC(=O)[C@@H](NC(=O)[C@H](C)NC(=O)[C@@H]1CSSC[C@H](NC(=O)[C@@H](N)CCCCNC(=O)COCCOCCNC(=O)CC[C@H](NC(=O)CCCCCCCCCCCCCCCCCCC(=O)O)C(=O)O)C(=O)N[C@@H](CC(N)=O)C(=O)N[C@@H]([C@@H](C)O)C(=O)N[C@@H](C)C(=O)N[C@@H]([C@@H](C)O)C(=O)N1)[C@@H](C)O)C(=O)N1CCC[C@H]1C(=O)N[C@@H](CO)C(=O)N[C@@H](CO)C(=O)N[C@H](C(=O)N[C@@H](CC(N)=O)C(=O)N[C@H](C(=O)NCC(=O)N1CCC[C@H]1C(=O)N[C@@H](Cc1c[nH]cn1)C(=O)N[C@H](C(=O)N[C@@H](Cc1ccc(O)cc1)C(N)=O)[C@@H](C)O)C(C)C)[C@@H](C)O, Acylated analogue of human amylin; also called compound 58) | 76.6 | 10.3 nM | 0.135 nM
